{"source": "paper PMC12092789", "target": "RAD51 (UniProt Q06609)", "experiment": "co-immunoprecipitation, Western blot", "conditions": "reference: wild-type NPM1, cisplatin; sites S260", "data": [{"substance": "nucleophosmin 1 (NPM1) (from UniProt P06748) NPM1 S260A, cisplatin", "values": [{"measurement": "binding against the reference", "result": "stronger"}]}]}
